In data set [1] the target is T1, CCR4-NOT FULL (CCR4a E240A:CAF1 D40A) (Homo sapiens, UniProt A5YKK6;Q9NZN8;O75175;Q92600;Q9ULM6;Q9UIV1;Q9H9A5;Q9UKZ1 …, E240A;D40A). As to the kind of experiment: EMSA; 1 uM protein, 100 nM RNA; preferred; EMSA: 20 mM Tris/HCl pH 7.5, 10 mM NaCl, 2 mM MgCl2, 0.1% BSA, 0.1% Orange G, 3% Ficoll 400; 100 nM RNA; 10% native PAGE in TBE pH 8.3; temperature not stated. The following applies: protein: recombinant; tags: NOT1 N-His10 and C-StrepII x2; other tags removed; copies: 1;1;1;1;1;1;1;1; label: labeled. (In EMSA bound probe runs differently from free probe, usually more slowly.)

In data set [2] the target is T1, CCR4-NOT FULL (CCR4a E240A:CAF1 D40A). Nature of the data set: EMSA; 1 uM protein, 100 nM RNA; EMSA: 20 mM Tris/HCl pH 7.5, 10 mM NaCl, 2 mM MgCl2, 0.1% BSA, 0.1% Orange G, 3% Ficoll 400; 100 nM RNA; 10% native PAGE in TBE pH 8.3; temperature not stated. The following applies: protein: recombinant; tags: NOT1 N-His10 and C-StrepII x2; other tags removed; copies: 1;1;1;1;1;1;1;1; label: 5' 6-FAM.

Three molecules from publication PMC6639331, “Reconstitution of recombinant human CCR4-NOT reveals molecular insights into regulated deadenylation” can be followed below.

Regarding UUUUUUUUUUUUUUUUUUUUUUUUUUUUUU (ssRNA) [poly(U)30], the binding result in data set [1] is reported as “binds”.

Take UCUAAAUAAAAAAAAAAAAAAAAAAAA (ssRNA) [7-mer-A20]: the binding result in data set [2] is listed as “binds”.

In the case of CACAUCCAACUUCUCUAAAUAAAAAAAAAAAAAAAAAAAA (ssRNA) [13+7-mer-A20], the binding result in data set [2] is listed as “binds”.
